Data as given in the Immune Epitope Database (IEDB).
pKd: −log10 of the molar value.

How the values were obtained:
[1] = biological target: HLA-A*23:01; assay: IEDB peptide-MHC binding, purified MHC/competitive/radioactivity; filed as Kd, often an IC50 or EC50 that approximates it; ≥ and ≤ were set here for values at or beyond the usual limits of such assays
[2] = biological target: HLA-A*29:02; assay: as above
[3] = biological target: HLA-A*01:01; assay: as above
[4] = biological target: HLA-A*26:01; assay: as above
[5] = biological target: HLA-A*24:02; assay: as above
[6] = biological target: HLA-A*30:02; assay: as above
[7] = biological target: HLA-A*02:01; assay: IEDB peptide-MHC binding, purified MHC/competitive/fluorescence; filed as Kd, often an IC50 or EC50 that approximates it; ≥ and ≤ were set here for values at or beyond the usual limits of such assays
[8] = biological target: HLA-A*33:01; assay: IEDB peptide-MHC binding, purified MHC/competitive/radioactivity; filed as Kd, often an IC50 or EC50 that approximates it; ≥ and ≤ were set here for values at or beyond the usual limits of such assays; conditions: source organism: Triticum aestivum
[9] = biological target: HLA-A*31:01; assay: as above; conditions: source organism: Triticum aestivum
[10] = biological target: HLA-A*11:01; assay: as above; conditions: source organism: Triticum aestivum
[11] = biological target: HLA-A*68:01; assay: as above; conditions: source organism: Triticum aestivum
[12] = biological target: HLA-A*03:01; assay: as above; conditions: source organism: Triticum aestivum
[13] = biological target: HLA-B*07:02; assay: as above
[14] = biological target: HLA-A*26:01; assay: IEDB peptide-MHC binding, purified MHC/direct/fluorescence; filed as Kd, often an IC50 or EC50 that approximates it; ≥ and ≤ were set here for values at or beyond the usual limits of such assays; conditions: source organism: Mycobacterium tuberculosis variant bovis
[15] = biological target: HLA-A*02:03; assay: IEDB peptide-MHC binding, purified MHC/competitive/radioactivity; filed as Kd, often an IC50 or EC50 that approximates it; ≥ and ≤ were set here for values at or beyond the usual limits of such assays; conditions: source organism: Dengue virus 4 Philippines/H241/1956
[16] = biological target: HLA-B*51:01; assay: as above
[17] = source organism: SARS coronavirus Tor2
[18] = source organism: Mammarenavirus guanaritoense
[19] = source organism: Triticum aestivum
[20] = source organism: Dengue virus 2 Jamaica/1409/1983
[21] = source organism: Dengue virus 1 Brazil/97-11/1997
[22] = source organism: Mammarenavirus brazilense
[23] = source organism: Mammarenavirus juninense

AFEKMVSLL
pKd [1, 17]: 5.08
pKd [2, 17]: ≤ 4.56
pKd [3, 17]: ≤ 4.11
pKd [4, 17]: ≤ 4.13
pKd [5, 17]: 4.94
pKd [6, 17]: ≤ 4.09

AFLIGANYL
pKd [1, 17]: ≤ 4.26
pKd [2, 17]: ≤ 4.58
pKd [3, 17]: ≤ 4.14
pKd [4, 17]: ≤ 4.11
pKd [5, 17]: ≤ 4.34
pKd [6, 17]: ≤ 4.10

AIFFTTSLF
pKd [1, 18]: 6.61
pKd [2, 18]: 6.56
pKd [5, 18]: 5.92

ALSALLTKL
pKd ([7]; source organism: Human alphaherpesvirus 1 strain 17): 6.50

AMCNVYIPPY
pKd [8]: 5.59
pKd [1, 19]: 4.94
pKd [9]: 6.65
pKd [2, 19]: 7.89
pKd [3, 19]: 7.08
pKd [4, 19]: 6.07
pKd [10]: 6.87
pKd [5, 19]: ≤ 4.55
pKd [6, 19]: 6.06
pKd [11]: 6.04
pKd [12]: 6.82

AWPLIVTAL
pKd [1, 17]: ≤ 4.31
pKd [2, 17]: ≤ 4.12
pKd [3, 17]: ≤ 4.64
pKd [4, 17]: 4.75
pKd [5, 17]: ≤ 4.11
pKd [6, 17]: ≤ 4.42

CLERWMLVA
pKd [1, 18]: ≤ 4.11
pKd [2, 18]: ≤ 4.10
pKd [3, 18]: 6.82
pKd [4, 18]: ≤ 4.11
pKd [5, 18]: ≤ 4.11
pKd [6, 18]: 4.83

CLTEYILWV
pKd ([7]; source organism: Vaccinia virus Copenhagen): 7.97

CTLSEQLDY
pKd [1, 17]: ≤ 4.11
pKd [2, 17]: 8.98
pKd [3, 17]: 8.07
pKd [4, 17]: 6.07
pKd [5, 17]: ≤ 4.11
pKd [6, 17]: 7.56

CYGVSATKL
pKd [1, 17]: 4.92
pKd [2, 17]: 4.91
pKd [3, 17]: ≤ 4.11
pKd [4, 17]: ≤ 4.11
pKd [5, 17]: ≤ 4.46
pKd [6, 17]: ≤ 4.09

DPRRCMKPV
pKd [13, 20]: 6.86

DWVPTSRTTW
pKd [1, 21]: 5.17
pKd [5, 21]: 6.05

EFFECFKYLL
pKd [1, 22]: 6.20
pKd [2, 22]: 7.49
pKd [5, 22]: 5.92

EIARIVEQM
pKd [14]: 6.71

ETLPAMCNVY
pKd [1, 19]: ≤ 4.41
pKd [2, 19]: 5.38
pKd [3, 19]: 6.38
pKd [4, 19]: 6.69
pKd [5, 19]: ≤ 4.15
pKd [6, 19]: 5.44

FLADKKMTL
pKd ([7]; source organism: Vaccinia virus WR): 8.82

FLFFMQGKGI
pKd [15]: 8.42
pKd ([16]; source organism: Dengue virus 4 Philippines/H241/1956): ≤ 4.34

FYQKTGEKS
pKd [3, 23]: ≤ 4.11
pKd [4, 23]: ≤ 4.11
pKd [5, 23]: ≤ 4.23
pKd [6, 23]: ≤ 4.39

GMSRIGMEV
pKd ([7]; source organism: SARS-CoV1): 8.80

GYLKPTTFM
pKd [1, 17]: 5.60
pKd [2, 17]: 6.27
pKd [3, 17]: ≤ 4.11
pKd [4, 17]: ≤ 4.11
pKd [5, 17]: 4.91
pKd [6, 17]: 5.17

ICSSVLKRY
pKd [1, 22]: 4.84
pKd [2, 22]: ≤ 4.30
pKd [3, 22]: 6.33
pKd [4, 22]: ≤ 4.11
pKd [5, 22]: 4.81
pKd [6, 22]: 6.52

IPKNFAGPV
pKd [13, 20]: 8.17
pKd [16, 20]: 5.51

ISMMGFKMNY
pKd [1, 17]: ≤ 4.51
pKd [2, 17]: 7.48
pKd [3, 17]: 6.37
pKd [4, 17]: 5.26
pKd [5, 17]: ≤ 4.15
pKd [6, 17]: 8.37

KPGTSGSPIV
pKd [13, 21]: 5.97

LALLAAFKV
pKd [16, 20]: 6.09

LFSGVSWVM
pKd ([5]; source organism: Dengue virus 3 Martinique/1243/1999): 6.98

LIDLQELGKY
pKd [1, 17]: ≤ 4.15
pKd [2, 17]: 5.55
pKd [3, 17]: 6.94
pKd [4, 17]: 5.99
pKd [5, 17]: ≤ 4.15
pKd [6, 17]: 7.41
